The text below walks through data of article PMC2121029.

The target in assay [1] is alpha-actin from chicken skeletal muscle (chicken) (UniProt P68139). Put plainly: kinetic simulation.
Assay [2] shares this target. Put plainly: actin uncapping assay.
Assay [3] deals with beta-actin from bovine erythrocytes (bovine) (UniProt P60712). Put plainly: shift of the critical concentration for actin polymerization.
The target is the same in assay [4]. Put plainly: kinetic simulation.
Assay [5] shares this target.

Read-outs that look alike come from different tables or passages of the source.

With “capping protein of chicken skeletal (pectoral) muscle containing the beta1 subunit (CP-beta1) (from UniProt P13127;P28497;P14315-1) (complex)”, the off-rate (koff) (as a rule, the first-order rate constant of dissociation) in assay [1] was 0 s⁻¹. The substance further came in with a half-life of a capped barbed end with PIP2 in assay [2] of 46 s.
Consider “capping protein of chicken kidney and brain containing the beta2 subunit (CP-beta2) (from UniProt P13127;P28497;P14315-2) (complex)”, for which the Kd – broadly, the constant that tells how readily two partners part at equilibrium – in assay [3] was 0.08 nM. In assay [4], the koff was 0.00095 s⁻¹ and the association rate constant (kon) (commonly the rate constant with which the complex forms) was 3.9e+06 M⁻¹ s⁻¹. In addition, the dissociation rate constant (koff) in assay [5] worked out at 0.00031 s⁻¹.
